Experimental data: article PMC3771910, “The Crystal Structure and RNA-Binding of an Orthomyxovirus Nucleoprotein” (PLoS Pathogens, 2013)

B1: infectious salmon anemia virus nucleoprotein, full-length (aa 1–616) (natural protein)
chain: MADKGMTYSFDVRDNTLVVRRSTATKSGIKISYREDRGTSLLQKAFAGTEDEFWVELDQDVYVDKKIREFLVEEKMKDMSTRVSGAVAAAIERSVEFDNFSKEAAANIEMAGVDDEEAGGSGLVDNRRKNKGVSNMAYNLSLFIGMVFPALTTFFSAILSEGEMSIWQNGQAIMRILALADEDGKRQTRTGGQRVDMADVTKLNVVTANGKVKQVEVNLNDLKAAFRQSRPKRSDYRKGQGSKATESSISNQCMALIMKSVLSADQLFAPGVKMMRTNGFNASYTTLAEGANIPSKYLRHMRNCGGVALDLMGMKRIKNSPEGAKSKIFSIIQKKVRGRCRTEEQRLLTSALKISDGENKFQRIMDTLCTSFLIDPPRTTKCFIPPISSLMMYIQEGNSVLAMDFMKNGEDACKICREAKLKVGVNSTFTMSVARTCVAVSMVATAFCSADIIENAVPGSERYRSNIKANTTKPKKDSTYTIQGLRLSNVRYEARPETSQSNTDRSWQVNVTDSFGGLAVFNQGAIREMLGDGTSETTSVNVRALVKRILKSASERSARAVKTFMVGEQGKSAIVISGVGLFSIDFEGVEEAERITDMTPEIEFDEDDEEEEDIDI
notes: Nucleoprotein (NP) of infectious salmon anemia virus (ISAV), aa 1-616; Dimer in solution; also called ISAV-NP; wt NP; source: E. coli Rosetta 2 (DE3), purified (HisTrap HP, HiTrap Heparin HP, Superdex 200)

Key:
[1] = target: ISAV-NP ΔC16 (aa 1–600) (infectious salmon anemia virus (ISAV)); assay: negative-staining electron microscopy; NP mixed with 24-nt RNA at 2:1 protein:RNA molar ratio in 100 mM NaCl, 25 mM HEPES pH 7.5, 25°C 30 min, purified by gel filtration before use
[2] = target: ISAV-NP ΔC16 (aa 1–600) (infectious salmon anemia virus (ISAV)); assay: SEC; gel filtration chromatography (Superdex 200) of purified recombinant NP; size estimated against three protein standards
[3] = target: the molecule itself; assay: as above

Molecule	stoichiometry N [1]	stoichiometry N [2]	stoichiometry N [3]
ISAV-NP ΔC16 (aa 1–600) (domain or fragment)	2	2	
B1			2
